Results on 3 molecules are retold here after patent US20250002593A1 (INMAGENE PTE, published 2025).

For assay [1], the target named is T1, membrane hIL-36R (human, UniProt Q9HB29 20-575).
T1 sequence: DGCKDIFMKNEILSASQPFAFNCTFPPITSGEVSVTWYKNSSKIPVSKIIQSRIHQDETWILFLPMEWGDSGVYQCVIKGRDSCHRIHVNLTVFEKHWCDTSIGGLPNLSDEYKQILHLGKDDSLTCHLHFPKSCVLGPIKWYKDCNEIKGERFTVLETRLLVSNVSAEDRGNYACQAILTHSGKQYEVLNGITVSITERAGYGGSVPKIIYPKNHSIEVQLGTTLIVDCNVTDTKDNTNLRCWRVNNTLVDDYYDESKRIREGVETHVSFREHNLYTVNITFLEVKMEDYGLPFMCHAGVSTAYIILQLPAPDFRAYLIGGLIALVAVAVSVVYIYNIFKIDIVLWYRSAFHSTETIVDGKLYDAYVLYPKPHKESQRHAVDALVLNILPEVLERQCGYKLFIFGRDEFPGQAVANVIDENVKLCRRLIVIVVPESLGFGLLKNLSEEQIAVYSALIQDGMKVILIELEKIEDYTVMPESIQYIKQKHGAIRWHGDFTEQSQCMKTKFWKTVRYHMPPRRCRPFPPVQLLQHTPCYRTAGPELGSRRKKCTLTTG
Briefly: cell-based or functional assay.

Assay [2] has as its target T2, Recombinant hIL-36R protein (Acrobio, Cat #IL2-H52H6) (human, UniProt Q9HB29 20-335).
T2 construct: Bought soluble protein; also called recombinant human IL-36R protein
T2 sequence: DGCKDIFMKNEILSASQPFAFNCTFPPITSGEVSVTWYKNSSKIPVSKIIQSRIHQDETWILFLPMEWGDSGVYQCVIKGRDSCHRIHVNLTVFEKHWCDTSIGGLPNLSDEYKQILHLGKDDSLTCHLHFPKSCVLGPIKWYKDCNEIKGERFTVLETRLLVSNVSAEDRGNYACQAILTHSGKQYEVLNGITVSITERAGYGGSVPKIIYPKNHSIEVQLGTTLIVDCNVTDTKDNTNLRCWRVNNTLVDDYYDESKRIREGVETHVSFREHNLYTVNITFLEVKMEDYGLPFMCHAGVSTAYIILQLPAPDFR
Kind of assay: BLI (Gator), antibody on Protein A sensor, hIL-36R analyte.

Assay [3] has as its target T2, Recombinant hIL-36R protein (Acrobio, …). Kind of assay: BLI (Gator), antibody on Protein A sensor, hIL-36R analyte; column head prints kon(1/s).
For assay [4] the target is unchanged. Briefly: BLI (Gator), antibody on Protein A sensor, hIL-36R analyte; column head prints koff(1/Ms).
Assay [5] concerns the target T1, membrane hIL-36R. Kind of assay: cell-based or functional assay. This is another data set of the same source.
Assay [6] concerns the target T1, membrane hIL-36R. Briefly: cell-based or functional assay. The source holds these as a separate data set.
The target of assay [7] is T1, membrane hIL-36R. Briefly: cell-based or functional assay. The source holds these as a separate data set.
The target of assay [8] is T1, membrane hIL-36R. Briefly: cell-based or functional assay. This is another data set of the same source.
Assay [9] deals with T1, membrane hIL-36R. Briefly: cell-based or functional assay. This is another data set of the same source.
The target in assay [10] is T1, membrane hIL-36R. Kind of assay: cell-based or functional assay. The source holds these as a separate data set.
Assay [11] addresses T1, membrane hIL-36R. Briefly: cell-based or functional assay. The source holds these as a separate data set.
The target in assay [12] is T2, Recombinant hIL-36R protein (Acrobio, …). Kind of assay: SPR (Biacore T200, 25 C), antibody captured by Fc, hIL-36R analyte. (In general: SPR reads the build-up and loss of mass on a sensor chip optically.)
Assay [13] has as its target T3, Recombinant hIL1R1 protein (human, UniProt P14778 18-332, limits assumed).
T3 sequence (looked up): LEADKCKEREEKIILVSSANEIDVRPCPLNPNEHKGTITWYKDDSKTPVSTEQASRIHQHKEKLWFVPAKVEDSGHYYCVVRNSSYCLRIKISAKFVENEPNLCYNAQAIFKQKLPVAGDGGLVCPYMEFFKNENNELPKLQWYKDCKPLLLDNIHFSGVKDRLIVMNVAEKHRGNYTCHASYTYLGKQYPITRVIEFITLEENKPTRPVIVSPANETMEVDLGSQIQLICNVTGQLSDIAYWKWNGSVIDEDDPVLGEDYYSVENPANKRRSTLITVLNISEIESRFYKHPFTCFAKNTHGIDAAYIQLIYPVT
Briefly: ELISA on coated recombinant hIL1R1 protein, detection with HRP anti-hIgG.

The target in assay [14] is T4, recombinant hIL-36R-his (human, UniProt Q9HB29 20-337).
T4 construct: Residues 1-337 (extracellular domain) are stated for the IL-36R-his used as immunogen; The range includes the signal peptide; no cleavage site is stated; also called recombinant hIL36R protein; recombinant human IL-36R-his protein; not shown: His tag
T4 sequence: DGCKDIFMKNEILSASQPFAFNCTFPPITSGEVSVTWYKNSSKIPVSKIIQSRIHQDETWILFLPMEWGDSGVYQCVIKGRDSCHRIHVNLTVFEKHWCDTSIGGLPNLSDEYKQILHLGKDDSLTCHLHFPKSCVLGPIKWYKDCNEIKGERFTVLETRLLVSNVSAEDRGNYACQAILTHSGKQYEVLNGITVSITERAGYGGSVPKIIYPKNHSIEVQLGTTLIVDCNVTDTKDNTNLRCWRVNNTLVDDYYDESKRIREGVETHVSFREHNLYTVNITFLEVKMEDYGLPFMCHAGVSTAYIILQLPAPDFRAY
Briefly: ELISA on coated recombinant hIL36R protein (1 µg/ml), detection with HRP anti-hIgG; unit taken from the x axis Ab(µg/mL).

The target of assay [15] is T1, membrane hIL-36R. Briefly: flow cytometry on HEK293 cells transfected with pcDNA3.1-hIL36R, FITC anti-hIgG, MFI (median); unit taken from the x axis. (In general: Flow cytometry measures light scatter and fluorescence of single cells or particles in a stream.)

B1: 9A6 (antibody, V domains shown)
VH: QVQLQQSGPGLMAPSQSLSITCTVSGFSLTSYDVSWIRQSPGKGLEWLGVIWTGGGTDYNSAFMSRLSITKDNSKSQVFLKMSSLQTDDTAIYYCVRVYYDPYYAMDYWGQGTSVTVSS
VL: DIVLTQSPAIMSASPGEKVTMTCSASSSVSSRYLHWYQQKSGASPKLWIYGTSNLASGVPARFSGSGSGTSYSLTISSVEAEDAATYYCQQYHSDPLTFGAGTKLELK
notes: Mouse variable regions; also called chimeric antibody 9A6
By Kd is commonly meant a measure of binding affinity in units of concentration. The term kon denotes a measure of how fast the partners come together. What is called koff is a measure of how fast the partners let go of each other. B1: in [1], the “IC50, IL-36α induced IL-36R signaling (IL36R reporter assay, luciferase)” value was 312 pM. Moreover, the Kd in [2] came to 20.5 pM. Besides, the association rate constant (kon) in [3] is 39700 M⁻¹ s⁻¹. Further, in assay [4], the koff is 8.14e-07 s⁻¹.

B2: REGN14 (antibody, V domains shown)
VH: EVQLVESGGDLVQPGRSLRLSCAASGFTFDDYAMHWVRQAPGKGLEWVSVISWNSDVIAYSDSVKGRFTISRDNAKNSLYLQMNSLRTEDTALYYCTKGHKWSFFDYWGQGTLVTVSS
VL: EIVLTQSPATLSLSPGERATLSCRASQSISSYLAWYQQKPGQAPRLLIFNVANRATDIPARFSGSGSGTDFTLTISSLEPEDFAVYYCQQRSNWPLTFGGGTKVEIK
notes: also called benchmark antibody
Usually EC50 stands for the concentration needed to bring the measured effect to its halfway point. For the molecule B2, the “IC50, IL-36R reporter assay: inhibition of IL-36α induced luminescence in Jurkat-IL36R-IL1Racp-NFkB-luc cells (printed REGN-14)” value in assay [5] came to 83.9 pM. In addition, the “IC50, IL-36R reporter assay: inhibition of ligand induced luminescence in Jurkat-IL36R-IL1Racp-NFkB-luc cells (printed REGN-14)” value in assay [6] came out at 0.169 µg/mL. For the same molecule, in assay [7], the “IC50, inhibition of IL-36α induced IL-8 release in A431 cells (IL-8 ELISA, OD450) [panel IL-36α]” value is 2.29 µg/mL; the “IC50, inhibition of IL-36β induced IL-8 release in A431 cells (IL-8 ELISA, OD450) [panel IL-36β]” value was 1.02 µg/mL; the “IC50, inhibition of IL-36γ induced IL-8 release in A431 cells (IL-8 ELISA, OD450) [panel IL-36γ]” value was determined as 0.0627 µg/mL. In addition, the “IC50, inhibition of IL-36α induced IL-8 release in primary human dermal fibroblast (HDF) cells (IL-8 ELISA, OD450)” value in assay [8] was found to be 0.0877 µg/mL. Besides, in [9], the “IC50, inhibition of IL-36α induced IL-6 release in primary human epithelial keratinocytes (HEK cells) [panel IL-6]” value is 1.73 µg/mL; the “IC50, inhibition of IL-36α induced IL-8 release in primary human epithelial keratinocytes (HEK cells) [panel IL-8]” value was 1.47 µg/mL; the “IC50, inhibition of IL-36α induced TNF-α release in primary human epithelial keratinocytes (HEK cells) [panel TNF-α]” value was determined as 0.353 µg/mL. Besides, in assay [10], the “IC50, inhibition of IL-36β induced IL-6 release in primary human epithelial keratinocytes (HEK cells) [panel IL-6]” value was 0.0225 µg/mL; the “IC50, inhibition of IL-36β induced IL-8 release in primary human epithelial keratinocytes (HEK cells) [panel IL-8]” value came to 0.253 µg/mL; the “IC50, inhibition of IL-36β induced TNF-α release in primary human epithelial keratinocytes (HEK cells) [panel TNF-α]” value was 0.0298 µg/mL. Further, in [11], the “IC50, inhibition of IL-36γ induced IL-6 release in primary human epithelial keratinocytes (HEK cells) [panel IL-6]” value was found to be 0.148 µg/mL; the “IC50, inhibition of IL-36γ induced IL-8 release in primary human epithelial keratinocytes (HEK cells) [panel IL-8]” value was determined as 0.114 µg/mL; the “IC50, inhibition of IL-36γ induced TNF-α release in primary human epithelial keratinocytes (HEK cells) [panel TNF-α]” value was 0.0347 µg/mL. For the same molecule, in assay [12], the Kd was found to be 3740 pM, the koff worked out at 0.000283 s⁻¹ and the association rate constant (kon) turned out to be 75600 M⁻¹ s⁻¹. The binding result in [13] is recorded as “no binding (tested: 1 µg/mL)”. For the same molecule, the EC50 in assay [14] was 0.0106 µg/mL. Besides, it took 0.0582 µg/mL to reach a half-maximal effect in assay [15] (EC50).

B3: 5F7 (antibody, V domains shown)
VH: EVKLVESGGGLVQPGGSLSLSCAASGFAFTDYYMNWVRQPPGKALEWLALIRNKAAGYTIYYSASVKGRFTISRDNSQSILYLQMTALRPEDSATYYCVRDMTIYDGYYVDYALDYWGQGTSVTVSS
VL: DIQMNQSPSSLSASLGDTITITCRASQNINIWLSWYQQKPGNIPKLFIYKASNLHTGVPSRFSGSGSGTDFTLTISSLQPEDIATYYCQQSQSYPLTFGAGTKLELK
notes: Mouse variable regions; also called chimeric antibody 5F7; 5F7 original molecular
As for B3, the “IC50, IL-36α induced IL-36R signaling (IL36R reporter assay, luciferase)” value in assay [1] worked out at 448 pM. Besides, the “IC50, IL-36R reporter assay: inhibition of ligand induced luminescence in Jurkat-IL36R-IL1Racp-NFkB-luc cells (column printed '5F7-mus', taken as the '5F7 original molecular' of paragraph 330)” value in assay [6] was determined as 0.226 µg/mL. The dissociation constant (Kd) in assay [2] is 14600 pM. Further, in [3], the on-rate constant (kon) came out at 59100 M⁻¹ s⁻¹. In addition, the koff in assay [4] worked out at 0.000861 s⁻¹.
